Measurements from publication PMC12319226 (Frontiers in Bioinformatics, 2025).

T1: fHbp mutant 0017 (Neisseria meningitidis, fHbp v1.1 mutant, point mutant)
T1 chain: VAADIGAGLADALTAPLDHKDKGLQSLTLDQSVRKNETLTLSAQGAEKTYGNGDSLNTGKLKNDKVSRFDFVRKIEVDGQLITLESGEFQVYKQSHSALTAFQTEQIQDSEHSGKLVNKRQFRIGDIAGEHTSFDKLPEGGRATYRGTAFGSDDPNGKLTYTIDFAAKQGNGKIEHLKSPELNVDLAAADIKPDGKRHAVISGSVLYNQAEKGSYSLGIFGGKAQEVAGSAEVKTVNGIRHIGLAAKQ

T2: fHbp mutant 0014 (Neisseria meningitidis, fHbp v1.1 mutant, point mutant)
T2 chain: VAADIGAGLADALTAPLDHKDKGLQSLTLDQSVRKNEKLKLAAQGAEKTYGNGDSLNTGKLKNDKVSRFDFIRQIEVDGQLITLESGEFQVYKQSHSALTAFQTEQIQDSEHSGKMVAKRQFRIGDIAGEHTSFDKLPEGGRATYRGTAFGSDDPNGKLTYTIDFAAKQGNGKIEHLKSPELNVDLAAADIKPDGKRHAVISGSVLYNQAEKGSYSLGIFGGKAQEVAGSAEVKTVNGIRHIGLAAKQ

T3: fHbp mutant 0016 (Neisseria meningitidis, fHbp v1.1 mutant, point mutant)
T3 chain: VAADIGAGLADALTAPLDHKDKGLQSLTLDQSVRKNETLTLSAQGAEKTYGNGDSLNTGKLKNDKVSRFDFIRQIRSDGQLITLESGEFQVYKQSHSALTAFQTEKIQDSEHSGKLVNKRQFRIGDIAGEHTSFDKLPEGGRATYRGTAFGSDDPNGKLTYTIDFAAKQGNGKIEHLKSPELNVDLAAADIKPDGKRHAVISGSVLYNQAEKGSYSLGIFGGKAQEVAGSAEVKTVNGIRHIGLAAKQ

T4: factor H binding protein variant 3.28 (Neisseria meningitidis, fHbp variant …)
T4 construct: also called fHbp v3.28; v3.28 Control (0002)
T4 chain: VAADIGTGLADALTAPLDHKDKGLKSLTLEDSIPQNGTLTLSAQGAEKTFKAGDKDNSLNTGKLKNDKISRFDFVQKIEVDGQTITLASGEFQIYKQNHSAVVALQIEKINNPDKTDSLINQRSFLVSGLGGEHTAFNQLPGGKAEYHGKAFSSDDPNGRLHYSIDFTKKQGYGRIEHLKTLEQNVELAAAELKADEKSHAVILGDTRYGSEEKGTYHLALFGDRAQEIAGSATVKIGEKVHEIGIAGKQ

T5: fHbp mutant 0018 (Neisseria meningitidis, fHbp v1.1 mutant, point mutant)
T5 chain: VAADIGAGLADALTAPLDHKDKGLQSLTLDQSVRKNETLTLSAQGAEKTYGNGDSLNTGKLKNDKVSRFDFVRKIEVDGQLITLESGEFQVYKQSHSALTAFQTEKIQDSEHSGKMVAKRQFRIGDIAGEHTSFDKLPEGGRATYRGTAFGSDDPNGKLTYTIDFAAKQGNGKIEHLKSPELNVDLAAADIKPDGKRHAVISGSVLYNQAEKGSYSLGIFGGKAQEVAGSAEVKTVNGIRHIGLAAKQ

T6: fHbp mutant 0015 (Neisseria meningitidis, fHbp v1.1 mutant, point mutant)
T6 chain: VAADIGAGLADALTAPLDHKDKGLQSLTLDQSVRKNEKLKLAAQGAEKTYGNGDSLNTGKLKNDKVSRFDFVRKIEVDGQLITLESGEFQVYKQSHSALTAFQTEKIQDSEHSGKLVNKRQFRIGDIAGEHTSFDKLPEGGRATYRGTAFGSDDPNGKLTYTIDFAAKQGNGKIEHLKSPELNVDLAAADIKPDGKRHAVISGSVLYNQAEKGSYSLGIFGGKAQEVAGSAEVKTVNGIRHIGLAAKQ

T7: fHbp mutant 0012 (Neisseria meningitidis, fHbp v1.1 mutant, point mutant)
T7 chain: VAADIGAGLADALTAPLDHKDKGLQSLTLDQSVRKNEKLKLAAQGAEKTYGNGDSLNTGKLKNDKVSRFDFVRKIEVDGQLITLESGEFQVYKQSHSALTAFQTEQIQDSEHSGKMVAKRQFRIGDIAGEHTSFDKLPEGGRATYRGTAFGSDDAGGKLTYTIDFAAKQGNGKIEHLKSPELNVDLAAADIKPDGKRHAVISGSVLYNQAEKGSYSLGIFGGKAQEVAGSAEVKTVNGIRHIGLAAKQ

T8: fHbp mutant 0022 (Neisseria meningitidis, fHbp v3.28 …, point mutant)
T8 chain: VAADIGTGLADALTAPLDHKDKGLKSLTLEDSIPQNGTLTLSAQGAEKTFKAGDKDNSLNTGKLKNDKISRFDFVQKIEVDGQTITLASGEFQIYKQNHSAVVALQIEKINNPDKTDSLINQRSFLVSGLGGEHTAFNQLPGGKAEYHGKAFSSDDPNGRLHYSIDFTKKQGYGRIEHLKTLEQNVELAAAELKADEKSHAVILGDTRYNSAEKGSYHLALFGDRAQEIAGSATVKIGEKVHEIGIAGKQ

B1: mAb 4B3 (human) (antibody, V domains shown)
VH: QVQLVQSGGGLVKPGGSLRLSCAASGFPFSSYYMSWIRQAPGKGLEWVSDINNSGNVKEYADFVKGRLTISRDNVKNSMYLHMNSLRVEDTAVYYCARNRGRFDVWGQGTLVTVSA
VL: EIVMTQSPGTLSLSPGETATLSCRASQMISSPFLAWYQQRRGQAPRLLIYGASTRATDTPDRFRGSGSGTDFILTISRLEPEDFAVYYCQYYDDSPFTFGQGTKLEIK
notes: also called 4B3-2; source: Expi293, purified (MabSelect SuRe, SEC); copies: 2 + 2
B2: mAb 1E6 (human) (antibody, V domains shown)
VH: EVQLVQSGAEVKKPGSSVKVSCKASGGTVIDYPITWVRQAPGQGLEWVGGFVPLFRTSNYGQKFQGRVTITADKSTSTASMELNSLTSEDTAIYYCARGDTAMGPFDYWGQGTLVTVSS
VL: SYVLTQPPSLSVAPGKTATLTCGGNNIAGKTVHWYQQRPGQAPVLVISYDSDRPSGIPERFSGSNSANTATLTISRVEAGDEADYYCQVWDRNSDHWVFGGGTKLTVL
notes: source: Expi293, purified (MabSelect SuRe, SEC); copies: 2 + 2

How the values were obtained:
Assay in all cases: BLI
Conditions in all cases: both partners purified
fHbp mutant 0017 = target: T1, fHbp mutant 0017
fHbp mutant 0014 = target: T2, fHbp mutant 0014
fHbp mutant 0016 = target: T3, fHbp mutant 0016
[1] = target: T4, factor H binding protein variant 3.28
fHbp mutant 0018 = target: T5, fHbp mutant 0018
[2] = target: T9, factor H binding protein variant 1.1 (Neisseria meningitidis serogroup B …, UniProt Q9JXV4)
T9 construct: also called fHbp v1.1; v1.1 Control (0001)

fHbp mutant 0015 = target: T6, fHbp mutant 0015
fHbp mutant 0012 = target: T7, fHbp mutant 0012
fHbp mutant 0022 = target: T8, fHbp mutant 0022

Binder	Kd (fHbp mutant 0017)	koff (fHbp mutant 0017)	kon (fHbp mutant 0017)	Kd (fHbp mutant 0014)	koff (fHbp mutant 0014)	kon (fHbp mutant 0014)	Kd (fHbp mutant 0016)	koff (fHbp mutant 0016)	kon (fHbp mutant 0016)	Kd [1]	koff [1]	kon [1]	Kd (fHbp mutant 0018)	koff (fHbp mutant 0018)	kon (fHbp mutant 0018)	Kd [2]	koff [2]	kon [2]	Kd (fHbp mutant 0015)	koff (fHbp mutant 0015)	further results
B1	2.98 nM	0.000964 s⁻¹	324100 ± 1980 M⁻¹ s⁻¹	1.57 nM	0.00116 s⁻¹	736500 ± 3130 M⁻¹ s⁻¹	4.74 nM	0.00131 s⁻¹	276800 ± 1380 M⁻¹ s⁻¹	5.15 nM	0.000542 s⁻¹	105000 ± 1620 M⁻¹ s⁻¹	2.36 nM	0.00101 s⁻¹	426800 ± 2190 M⁻¹ s⁻¹	1.33 nM	0.00103 s⁻¹	767900 ± 4960 M⁻¹ s⁻¹	3.57 nM	0.00129 s⁻¹	kon (fHbp mutant 0015): 360000 ± 5970 M⁻¹ s⁻¹; Kd (fHbp mutant 0012): 1.39 nM; koff (fHbp mutant 0012): 0.00126 s⁻¹; kon (fHbp mutant 0012): 906000 ± 2710 M⁻¹ s⁻¹; Kd (fHbp mutant 0022): 1.77 nM; koff (fHbp mutant 0022): 0.000836 s⁻¹; kon (fHbp mutant 0022): 473200 ± 1420 M⁻¹ s⁻¹
B2	4.23 nM	0.00199 s⁻¹	471400 ± 4100 M⁻¹ s⁻¹	2.11 nM	0.00204 s⁻¹	964100 ± 5740 M⁻¹ s⁻¹	0.69 nM	0.000223 s⁻¹	323000 ± 3620 M⁻¹ s⁻¹	1.76 nM	0.000238 s⁻¹	135000 ± 961 M⁻¹ s⁻¹	1.04 nM	0.000558 s⁻¹	538300 ± 3080 M⁻¹ s⁻¹	3.4 nM	0.00447 s⁻¹	1.32e+06 ± 14800 M⁻¹ s⁻¹	1.42 nM	0.000862 s⁻¹	kon (fHbp mutant 0015): 609000 ± 6530 M⁻¹ s⁻¹; Kd (fHbp mutant 0012): 3.52 nM; koff (fHbp mutant 0012): 0.00661 s⁻¹; kon (fHbp mutant 0012): 1.88e+06 ± 58600 M⁻¹ s⁻¹; Kd (fHbp mutant 0022): 0.601 nM; koff (fHbp mutant 0022): 0.0003 s⁻¹; kon (fHbp mutant 0022): 498300 ± 1660 M⁻¹ s⁻¹
